Among the data in US20230340090A1 are OD (O.D. (405 nm)) values, retold here.

One assay concerns the target T1, TP-24 peptide (human).
T1 sequence (peptide, biotinylated): REFFSQYGDVMDVFI
Kind of assay: indirect ELISA, biotinylated 15-mer on streptavidin plate. For orientation: An ELISA detects its analyte on a solid surface through an enzyme-linked reagent.

The next assay has as its target T2, TP-25 peptide (human).
T2 sequence (peptide, biotinylated): VMDVFIPKPFRAFAF
The assay is described as above.

B1: ACI-7062-404D6-Ab2 (antibody, IgG3, V domains shown)
VH: QVTLKESGPGILQPSQTLSLTCSFSGFSLSTYGIGVGWIRQPSGKGLEWLAHIWWNDYKYYNTALKSRLTISKDTSNNRVFLKIASVDTADTATYYCARVYGNLYYFDYWGQGTTLTVSS
VL: DVLMTQTPLSLPVSLGDQASISCRSSQSIVHGSGNTYLEWYLQKPGQSPKLLIYKVSNRFSGVPDRFSGSGSGTDFTLRISRVEAEDLGVYYCFQGSHVPTFGAGTKLELKR
In the case of B1, the OD (O.D. (405 nm)) in the assay with TP-24 peptide (human) amounted to 4; in the assay with TP-25 peptide (human), 0.9.

B2: ACI-7062-415C4-Ab1 (antibody, IgG1, V domains shown)
VH: QVTLKESGPGILQPSQTLSLTCSFSGFSLSTYGIGVGWIRQPSGKGLEWLAHIWWNDNKYYKTALKSRLTISKDTSNNQVFLKIASVDTADSATYYCARVYGNLYYFGYWGQGTTLTVSS
VL: DVLMTQTPLSLPVSLGDQASISCRSSQSIVHSTGNTYLEWYLQKPGQSPKLLIYKVSNRFSGVPDRFSGSGSGTDFTLKISRVEAEDLGVYYCFQGSRVPTFGAGTKLELKR
Take B2: the OD (O.D. (405 nm)) stood at 3.8 in the assay with TP-24 peptide (human) and 1.2 with TP-25 peptide (human).

B3: ACI-7062-416A11-Ab1 (antibody, IgG2a, V domains shown)
VH: QVTLKESGPGILQSSQTLSLTCSFSGFSLSTYGIGVGWIRQPSGKGLEWLAHIWWNDNKYYNTALKSRLTISKDTSNNQVFLKIASVDTADAATYYCARVYGNLYYFGYWGQGTTLTVSS
VL: DVLMTQTPLSLPVSLGDRASISCRSSQSIVHSSGNTYLEWYLQKPGQSPKLLIYKVSNRFSGVPDRFSGSGSGTDFTLKISRVEAEDLGVYYCFQGSRVPTFGAGTKLELKR
Regarding B3, the OD (O.D. (405 nm)) with TP-24 peptide (human) turned out to be 2.9; in the assay with TP-25 peptide (human) it was 0.9.

B4: ACI-7062-410H3-Ab1 (antibody, IgG1, V domains shown)
VH: DVQLVESGGGLVQPGGSRRLSCAASGFTFSSFGMHWVRQAPEKGLEWVAYIRSGSDIIYYADSVKGRFTISRDNPENTLFLQMTSLRSEDTAMYYCARSGTTVPFDYWGQGTSLTVSS
VL: DIVMTQSPSSLAMSVGQKVTMSCKSSQSLLNSGNQKNYLAWYQQKPGQSPELLLYFASTRASGVPDRFIGSGSGTDFTLTISSVQAEDLADYFCQQHYSIPLTFGAGTKLELKR
Take B4: the OD (O.D. (405 nm)) with TP-24 peptide (human) turned out to be 3.8; with TP-25 peptide (human), 0.8.

B5: ACI-7062-401A2-Ab2 (antibody, IgG1, V domains shown)
VH: DVQLVESGGGLVQPGGSRRLSCAASGFTFSRFGMHWVRQAPEKGLEWVAYIRSGSDIIYYADSVKGRFTISRDNPENTLFLQMTSLRSEDTAMYYCARSGTTVPFDYWGQGTSLTVSS
VL: DIVMTQSPSSLAMSVGQKVTMSCKSSQSLLNSGDQKNYLAWYQQKPGQSPELLLYFASTRASGVPDRFIGSGSGTDFSLTISSVQAEDLADYFCQQHYSIPLTFGAGTKLELKR
Regarding B5, the OD (O.D. (405 nm)) came to 2.5 with TP-24 peptide (human) and 1 in the assay with TP-25 peptide (human).

B6: ACI-7062-412E12-Ab1 (antibody, IgG1, V domains shown)
VH: DVQLVESGGGLVQPGGSRRLSCAASGFTFSRFGMHWVRQAPEKGLEWVAYIRSGSDIIYYADSVKGRFTISRDNPENTLFLQMTSLRSEDTAMYYCARSGTTVPFDYWGQGTSLTVSS
VL: DIVMTQSPSSLAMSVGQKVTMSCKSSQSLLNSGDQKNYLAWYQQKPGQSPELLLYFASTRASGVPDRFIGSGSGTDFSLTISSVQAEDLADYFCQQHYSIPLTFGAGTKLELKR
Consider B6, for which the results for the OD (O.D. (405 nm)) in the assay with TP-24 peptide (human) and with TP-25 peptide (human) were 3.2 and 1.2, respectively.

B7: ACI-7062-412A7-Ab1 (antibody, IgG2b, V domains shown)
VH: DVQLVESGGGLVQPGGSRRLSCAASGFTFSSFGMHWVRQAPEKGLEWVAYIRSGSDIIYYADSVKGRFTISRDNPENTLFLQMTSLRSEDTAMYYCARSGTTVPFDYWGQGTSLTVSS
VL: DIVMTQSPSSLAMSVGQKVTMSCKSSQSLLNSGNQKNYLAWYQQKPGQSPELLLYFASTRASGVPDRFIGSGSGTDFTLTISSVQAEDLADYFCQQHYSIPLTFGAGTKLELKR
For the molecule B7, the results for the OD (O.D. (405 nm)) with TP-24 peptide (human) and with TP-25 peptide (human) were 4 and 1.4, respectively.
